{"source": "patent CN102050877A", "about": "(NAT ENGINEERING RES CT OF ANTIBODY MEDICINE SHANGHAI CO LTD, dated 2011)", "biological_target": "T1, 人CD20 (on Raji cells) (human, UniProt P11836 1-297)", "T1 construct": "whole, on cells; No recombinant CD20 was used; also called Raja", "T1 sequence (looked up)": "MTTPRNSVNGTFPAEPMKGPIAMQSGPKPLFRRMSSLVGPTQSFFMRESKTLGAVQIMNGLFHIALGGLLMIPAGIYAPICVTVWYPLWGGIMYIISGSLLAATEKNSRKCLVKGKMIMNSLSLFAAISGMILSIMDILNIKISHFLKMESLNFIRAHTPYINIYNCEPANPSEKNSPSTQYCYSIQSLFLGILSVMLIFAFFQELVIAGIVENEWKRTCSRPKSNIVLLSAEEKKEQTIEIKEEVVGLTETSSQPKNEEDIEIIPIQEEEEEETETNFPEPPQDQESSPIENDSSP", "experiment": "in vitro antigen binding on Raji cells (flow cytometry)"}
{"binder": "抗人CD20人源化抗体hu8E4 (hu8E4Hb/hu8E4Lb) (antibody, human IgG1, kappa, V domains shown, LCDR1 RASGNIHNYLA, LCDR2 NAKTLPD, LCDR3 QQFWSNPWT; The expression constructs carried signal peptides; also called hu8E4VHb/hu8E4VLb) VH: EVQLVESGGGLVQPGGSLRLSCAASGFTFTSYNMHWVRQAPGKGLEWIGAIYPENGDTSYNQKFKDRATLTADKSKNTAYLQMNSLRAEDTAVYYCARWHYYGNGGALDYWGQGTLVTVSS VL: DIQMTQSPSSLSASVGDRVTITCRASGNIHNYLAWYQQKPGKAPKLLVHNAKTLPDGVPSRFSGSGSGTDFTLTISSLQPEDFATYYCQQFWSNPWTFGQGTKVEIKR", "values": [{"measurement": "binding result", "value": "binds"}]}
